Experiments:
[1] = molecular target: T1, 4-1BB蛋白 (SEQ ID NO:27), expressed on CHO-K1-4-1BB cells and Jurkat-NFAT-lucia-4-1BB cells (Homo sapiens (Human), UniProt Q07011 24-255); assay: flow cytometry on CHO-K1-4-1BB cells, Alexa-647 anti-human Fc
T1 construct: expressed by lentiviral transduction; also called CHO-K1-4-1BB细胞; Jurkat-NFAT-lucia-4-1BB细胞

[2] = molecular target: T2, Nectin-4蛋白 (SEQ ID NO:29), expressed on CHO-K1-Nectin-4 cells and A375-Nectin-4 cells (Homo sapiens (Human), UniProt Q96NY8 32-510); assay: flow cytometry on CHO-K1-Nectin-4 cells, Alexa-647 anti-human Fc
T2 construct: expressed by lentiviral transduction; also called CHO-K1-Nectin-4细胞; A375-Nectin-4细胞
T2 sequence: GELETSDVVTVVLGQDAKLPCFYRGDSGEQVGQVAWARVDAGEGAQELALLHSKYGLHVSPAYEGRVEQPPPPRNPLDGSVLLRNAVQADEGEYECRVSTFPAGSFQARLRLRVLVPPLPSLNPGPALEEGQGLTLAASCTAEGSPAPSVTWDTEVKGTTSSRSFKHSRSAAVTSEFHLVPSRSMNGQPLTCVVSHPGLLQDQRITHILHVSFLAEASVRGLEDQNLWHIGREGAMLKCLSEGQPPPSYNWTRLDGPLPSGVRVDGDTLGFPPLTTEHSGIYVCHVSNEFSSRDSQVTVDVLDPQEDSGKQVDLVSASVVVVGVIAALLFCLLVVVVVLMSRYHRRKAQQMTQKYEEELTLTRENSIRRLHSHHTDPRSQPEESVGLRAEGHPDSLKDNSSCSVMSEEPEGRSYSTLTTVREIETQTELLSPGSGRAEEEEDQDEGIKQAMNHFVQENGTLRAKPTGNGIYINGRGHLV

[3] = molecular target: T3, 4-1BB-strep tagII蛋白 (Homo sapiens (Human), UniProt Q07011 24-186); assay: ELISA, 4-1BB-strep tagII coated at 2 ug/mL, HRP anti-human IgG, OD450
T3 construct: Soluble 4-1BB with C-terminal strep tag II, made in house; Coated on the ELISA plate at 2 ug/mL; also called 4-1BB蛋白

T1 sequence (Q07011 24-255 limits assumed): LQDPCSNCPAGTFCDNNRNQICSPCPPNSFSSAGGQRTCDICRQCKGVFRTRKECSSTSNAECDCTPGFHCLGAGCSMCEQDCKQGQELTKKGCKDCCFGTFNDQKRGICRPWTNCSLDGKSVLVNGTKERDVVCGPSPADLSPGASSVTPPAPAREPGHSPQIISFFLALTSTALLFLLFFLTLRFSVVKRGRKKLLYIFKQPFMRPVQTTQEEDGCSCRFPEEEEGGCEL

- binding result [1]: binds
- binding result [2]: binds
- binding result [3]: binds
B1: 抗体4-1BB×Nectin-4 (bispecific antibody, human IgG1, kappa, L234A L235A)
scFv: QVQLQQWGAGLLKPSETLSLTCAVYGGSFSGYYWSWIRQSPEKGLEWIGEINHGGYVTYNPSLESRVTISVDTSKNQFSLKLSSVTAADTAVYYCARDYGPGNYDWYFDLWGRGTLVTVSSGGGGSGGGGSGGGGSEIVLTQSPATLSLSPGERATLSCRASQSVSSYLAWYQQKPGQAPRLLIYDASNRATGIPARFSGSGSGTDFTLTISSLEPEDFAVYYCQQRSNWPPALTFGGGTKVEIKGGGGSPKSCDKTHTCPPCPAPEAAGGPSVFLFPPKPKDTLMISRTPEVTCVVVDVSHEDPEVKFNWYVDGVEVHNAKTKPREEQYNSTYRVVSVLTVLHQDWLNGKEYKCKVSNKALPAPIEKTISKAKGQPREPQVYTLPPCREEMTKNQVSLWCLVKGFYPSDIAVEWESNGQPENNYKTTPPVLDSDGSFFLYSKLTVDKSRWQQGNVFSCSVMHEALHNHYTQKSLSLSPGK
heavy: EVQLVESGGGLVQPGGSLRLSCAASGFTFSSYNMNWVRQAPGKGLEWVSYISSSSSTIYYADSVKGRFTISRDNAKNSLSLQMNSLRDEDTAVYYCARAYYYGMDVWGQGTTVTVSSASTKGPSVFPLAPSSKSTSGGTAALGCLVKDYFPEPVTVSWNSGALTSGVHTFPAVLQSSGLYSLSSVVTVPSSSLGTQTYICNVNHKPSNTKVDKKVEPKSCDKTHTCPPCPAPEAAGGPSVFLFPPKPKDTLMISRTPEVTCVVVDVSHEDPEVKFNWYVDGVEVHNAKTKPREEQYNSTYRVVSVLTVLHQDWLNGKEYKCKVSNKALPAPIEKTISKAKGQPREPQVCTLPPSREEMTKNQVSLSCAVKGFYPSDIAVEWESNGQPENNYKTTPPVLDSDGSFFLVSKLTVDKSRWQQGNVFSCSVMHEALHNHYTQKSLSLSPGK
light: DIQMTQSPSSVSASVGDRVTITCRASQGISGWLAWYQQKPGKAPKFLIYAASTLQSGVPSRFSGSGSGTDFTLTISSLQPEDFATYYCQQANSFPPTFGGGTKVEIKRTVAAPSVFIFPPSDEQLKSGTASVVCLLNNFYPREAKVQWKVDNALQSGNSQESVTEQDSKDSTYSLSSTLTLSKADYEKHKVYACEVTHQGLSSPVTKSFNRGEC
notes: Three chains: anti-4-1BB scFv-Fc (knob); human IgG1 Fc with L234A/L235A already contained in the entries; Produced in ExpiCHO, Protein A purified; also called 4-1BB×Nectin-4抗体; 4-1BB×Nectin-4双特异抗体

Reference: patent publication CN115368447A (HEFEI TIANGANG IMMUNOLOGY PHARMACEUTICAL CO LTD, dated 2022)
